According to patent US20030148956A1 (PROCTER AND GAMBLE, published 2003):
Ends that are not written are not given here.

T1: corticotropin releasing factor 2 receptor
T1 sequence (Q13324 whole entry, species assumed, looked up): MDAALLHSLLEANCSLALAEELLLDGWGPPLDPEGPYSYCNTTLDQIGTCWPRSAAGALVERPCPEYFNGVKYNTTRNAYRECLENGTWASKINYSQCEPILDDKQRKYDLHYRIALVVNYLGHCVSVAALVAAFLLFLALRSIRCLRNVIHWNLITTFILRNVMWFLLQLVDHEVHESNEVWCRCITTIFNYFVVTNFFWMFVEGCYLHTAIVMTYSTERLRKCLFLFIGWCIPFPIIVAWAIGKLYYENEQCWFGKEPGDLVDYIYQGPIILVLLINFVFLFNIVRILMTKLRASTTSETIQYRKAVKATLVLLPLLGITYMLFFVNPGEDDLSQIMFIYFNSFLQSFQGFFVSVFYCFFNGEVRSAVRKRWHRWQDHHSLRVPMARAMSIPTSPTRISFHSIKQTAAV

T2: corticotropin releasing factor 2 receptor
T2 sequence (Q13324 whole entry, species assumed, looked up): T1 sequence (Q13324 whole entry, species assumed, looked up)


What follows are binders tested against T1, corticotropin releasing factor 2 … (assay: cell-based or functional assay).

Row | Binder | CRF2R EC50 | CRF2R Emax %
1 | DNPSLSIDLTFHLLRTLLELARTQSQRERAEQNRIIFDSV (ends and bridges not checked) [human urocortin I fragment] | 0.00352 µM | 100%
2 | TKFTLSLDVPTNIMNLLFNIAKAKNLRAQAAANAHLMAQI (ends and bridges not checked) [human urocortin III fragment] | > 0.1 µM | 60%
3 | SEEPPISLDLTFHLLREVLEMARAEQLAQQAHSNRKLMEII (ends and bridges not checked) [human corticotropin releasing factor fragment] | 0.0493 µM | 100%
4 | SQEPPISLDLTFHLLREVLEMTKADQLAQQAHSNRKLLDIA (ends and bridges not checked) [ovine corticotropin releasing factor fragment] | > 0.1 µM | 33%
5 | IVLSLDVPIGLLQILLEQARARAAREQATTNARILARV (ends and bridges not checked) [human urocortin II fragment] | 0.00364 µM | 98%

Each binder was assayed against corticotropin releasing factor 1 receptor (assay: cell-based or functional assay).

Row | Binder | CRF1R EC50 | CRF1R Emax %
6 | DNPSLSIDLTFHLLRTLLELARTQSQRERAEQNRIIFDSV (ends and bridges not checked) [human urocortin I fragment] | 0.009 µM | 100%
7 | TKFTLSLDVPTNIMNLLFNIAKAKNLRAQAAANAHLMAQI (ends and bridges not checked) [human urocortin III fragment] | > 1 µM | 10.2%
8 | SEEPPISLDLTFHLLREVLEMARAEQLAQQAHSNRKLMEII (ends and bridges not checked) [human corticotropin releasing factor fragment] | 0.0199 µM | 87%
9 | SQEPPISLDLTFHLLREVLEMTKADQLAQQAHSNRKLLDIA (ends and bridges not checked) [ovine corticotropin releasing factor fragment] | 0.0274 µM | 98%
10 | IVLSLDVPIGLLQILLEQARARAAREQATTNARILARV (ends and bridges not checked) [human urocortin II fragment] | > 0.1 µM | 9%

These binders were tested against T2, corticotropin releasing factor 2 … (assay: cell-based or functional assay).

Row | Binder | CRF2R EC50 | CRF2R Emax %
11 | ZGPPISIDLPLHLLRKMIEIEKQEKEKQQAANNALLLATI (C-terminal amide) [SEQ ID NO 241] | 0.0126 µM | 99%
12 | ZGPPISIDLPLYLLRKMIEIEKQEKEKQQATTNARLLDTV (C-terminal amide) [SEQ ID NO 242] | 0.029 µM | 94%
13 | ZGPPISIDLPLYLLRKMIEIEKQEKEKQQATTNARLLDRV (C-terminal amide) [SEQ ID NO 243] | 0.0168 µM | 100%
14 | ZGPPISIDLPLYLLRKMIEIEKQEKEKQQAANNALLLDTI (C-terminal amide) [SEQ ID NO 244] | 0.0088 µM | 98%
15 | ZGPPISIDLPLYLLRKMIEIEKQEKEKQQAANNALLLATI (C-terminal amide) [SEQ ID NO 245] | 0.0075 µM | 93%
16 | ZGPPISIDLPLQLLRKMIEIEKQEKEKQQATTNARLLDTV (C-terminal amide) [SEQ ID NO 246] | 0.0388 µM | 100%
17 | ZGPPISIDLPLQLLEKMIEIEKQEKEKQQATTNARLLDRV (C-terminal amide) [SEQ ID NO 247] | 0.0188 µM | 100%
18 | ZGPPISIDLPLQLLRKMIEIEKQEKEKQQAANNALLLDTI (C-terminal amide) [SEQ ID NO 248] | 0.0196 µM | 98%
19 | ZGPPISIDLPLQLLEKMIEIEKQEKEKQQAANNALLLATI (C-terminal amide) [SEQ ID NO 249] | 0.0122 µM | 92%
20 | ZGPPISIDLPFQLLRKMIEIEKQEKEKQQAANNRLLLATI (C-terminal amide) [SEQ ID NO 250] | 0.0197 µM | 100%
21 | ZGPPISIDLPFQLLRKMIEIEKQEKEKQQAANNALLLDTI (C-terminal amide) [SEQ ID NO 251] | 0.0118 µM | 100%
22 | ZGPPISIDLPTYLLRILIEIEKQEKEKQQAANNRLLLDTI (C-terminal amide) [SEQ ID NO 252] | 0.0223 µM | 100%
23 | ZGPPISIDVPTYLLRKMIEIEKQEKEKQQAANNRLLLDTI (C-terminal amide) [SEQ ID NO 253] | 0.0418 µM | 86%
24 | ZGPPISIDVPIGLLRKMIEIEKQEKEKQQAANNRLLLDTI (C-terminal amide) [SEQ ID NO 254] | 0.1 µM | 36%
25 | ZGPPISIDLPFQLLRILIEIEKQEKEKQQAANNRLLLDTI (C-terminal amide) [SEQ ID NO 255] | 0.007 µM | 100%

Molecular target: corticotropin releasing factor 1 receptor
Test: cell-based or functional assay
Remark: another data set of the same source

Row | Binder | CRF1R EC50 | CRF1R Emax %
26 | ZGPPISIDLPLHLLRKMIEIEKQEKEKQQAANNALLLATI (C-terminal amide) [SEQ ID NO 241] | 0.307 µM | 99%
27 | ZGPPISIDLPLYLLRKMIEIEKQEKEKQQATTNARLLDTV (C-terminal amide) [SEQ ID NO 242] | 0.358 µM | 99%
28 | ZGPPISIDLPLYLLRKMIEIEKQEKEKQQATTNARLLDRV (C-terminal amide) [SEQ ID NO 243] | 0.441 µM | 96%
29 | ZGPPISIDLPLYLLRKMIEIEKQEKEKQQAANNALLLDTI (C-terminal amide) [SEQ ID NO 244] | 0.299 µM | 100%
30 | ZGPPISIDLPLYLLRKMIEIEKQEKEKQQAANNALLLATI (C-terminal amide) [SEQ ID NO 245] | 0.381 µM | 100%
31 | ZGPPISIDLPLQLLRKMIEIEKQEKEKQQATTNARLLDTV (C-terminal amide) [SEQ ID NO 246] | 1 µM | 33%
32 | ZGPPISIDLPLQLLEKMIEIEKQEKEKQQATTNARLLDRV (C-terminal amide) [SEQ ID NO 247] | 1 µM | 34%
33 | ZGPPISIDLPLQLLRKMIEIEKQEKEKQQAANNALLLDTI (C-terminal amide) [SEQ ID NO 248] | 1 µM | 32%
34 | ZGPPISIDLPLQLLEKMIEIEKQEKEKQQAANNALLLATI (C-terminal amide) [SEQ ID NO 249] | 1 µM | 50%
35 | ZGPPISIDLPFQLLRKMIEIEKQEKEKQQAANNRLLLATI (C-terminal amide) [SEQ ID NO 250] | 0.138 µM | 99%
36 | ZGPPISIDLPFQLLRKMIEIEKQEKEKQQAANNALLLDTI (C-terminal amide) [SEQ ID NO 251] | 0.926 µM | 80%
37 | ZGPPISIDLPTYLLRILIEIEKQEKEKQQAANNRLLLDTI (C-terminal amide) [SEQ ID NO 252] | 0.227 µM | 100%
38 | ZGPPISIDVPTYLLRKMIEIEKQEKEKQQAANNRLLLDTI (C-terminal amide) [SEQ ID NO 253] | 1 µM | 42%
39 | ZGPPISIDVPIGLLRKMIEIEKQEKEKQQAANNRLLLDTI (C-terminal amide) [SEQ ID NO 254] | 0.708 µM | 6%
40 | ZGPPISIDLPFQLLRILIEIEKQEKEKQQAANNRLLLDTI (C-terminal amide) [SEQ ID NO 255] | 0.0333 µM | 84%
